Reference: the nanobody polyreactivity screen of Harvey et al. (2022)

Experiment: yeast display, Sf9 membrane polyspecificity reagent, FACS + sequencing; frameworks hold sequencing errors
Summary of the method: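 Sorting gates, low and high (top ~1%), were placed on anti-HA fluorescence to track expression and on streptavidin fluorescence to track reagent binding. A clone's polyreactivity label is taken from the gate it came out of. The reagent was 10% biotinylated, detergent-solubilized Sf9 membrane, applied for 1 hour at 4 °C to galactose-induced yeast display cells.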

Sequence | polyreactivity (PSR sort gate)
QVQLVESGGGLVQAGGSLRLSCAASVSTFSVYAMGWYRQAPGKERELVADISENGGSTYYADSVKGLFTISRDNAKNTVYLQMNSLKPEHTAVYYCAALYHSTSHTYSYWGQGTQVTVSS | low polyreactivity
QVQLVESGGGLVQAGGSLRLSCAATGFTFIPYAMGWYRQAPGKERELVAGITIGGRTNNADSVKGRFTISRDNAKNTVYLQMNSLKPEDTAVYYCNAGVYLYVTSKYWYYYWGQGTQVTVSS | high polyreactivity
QVQLVESGGGLVQAGGSLRLSCAATGFTIAWYTMGWYRQAPGKERELVAAISLNGGSKYYADSVKGRFTISRDNAKNTVYLQMNSLKPDDTAVYYCAKGYRWPYYPYDYWGQGTQVTVSS | low polyreactivity
QVQLVESGGGLVQAGGSLRLSCAATGFTYYRNARGSYRQAPGKERELVAAISGSGGSTYYADSVKGRFTISRDNATNTVYLQMNSLKPEDTAVYYCAAAAGSYNSGNGYWGLGTQVTVSS | high polyreactivity
QVQLVESGGGLVQAGGSLRLSCAATGGTFTFYAMGWYRQAPGKERELVATINWSGGSTYYADSVKGRFTISRDNAKITVYLQMNSLKPEDTAVYYCNAAWPYKSVEYWGQGTQVTVSS | low polyreactivity
QVQLVESGGGLVQAGGSLRLSCAATGIIFRYAMGWYRQAPGKERELVAAIRKSDGSTYYADSVKGRFTISRDNAKNTVYLQMNSLKPEDTAVYYCATDIVYGNRKGFYYWGQGTQVTVSS | high polyreactivity
QVQLVESGGGLVQAGGSLRLSCAATGIIFSWYAMGWYRQAPVKERELVATISSGAHTYYADSVKGRFTISRDNAKNTVYLQMNRLKPEDTAVYYCGAANEFGVVWAQFDYWGQGPQVTVSS | low polyreactivity
QVQLVESGGGLVQAGGSLRLSCAATGIIFYRNAMGWYRQAPGKERELVASISKRGGSTYYADSVKGRFTISRDNAKNTVYLQMNSLKPEDNAVYYCNTRGGIARQFEIYSWGQGTQVTLSS | high polyreactivity
QVQLVESGGGLVQAGGSLRLSCAATGIIYGYVMGWYRQAPGKERELVAVITRSGGSTYYADSVKGRFTISRDNAMNSVYLQMNSLKPEDTAVYYCAAQGIDILYDYWGQGTQVTVSS | low polyreactivity
QVQLVESGGGLVQAGGSLRLSCAATGINFRAYAMGWYRQAPGKERELVAAISSGGNTNYADSVKGRFTISRDNAKNTVYLQMNSLKPEDTAVYYCAAGYFWGRIKYYYWGQGTQVTVSS | high polyreactivity
QVQLVESGGGLVQAGGSLRLSCAATGLILGRNAMGWYRQAPGKERELVAAITGSGSTNYADSVKGRFTISRDNAKNTVYLQMNSLKPEDTAVYYCAADVRLDPTGLDYLDYDYWGQGTQVTVSS | low polyreactivity
QVQLVESGGGLVQAGGSLRLSCAATGRIFVNAMGWYRQAPGKERELVAAINTRGGSTYYADSVKGRFTISRDNAKNSVYLQMNSLKPEDTAVYYCAARFYTSSRYNYWGQGTQVTVSS | high polyreactivity
QVQLVESGGGLVQAGGSLRLSCAATGRIFYRYSMGWYRQAPGKERELVAAIRYSGGTTYADSVKGRFTISRDNAKNTVYLQMNSLKPEDTAVFYCAARASLWGGFESWGQGTQVTVSS | high polyreactivity
QVQLVESGGGLVQAGGSLRLSCAATGRNFAVNAIGWYRQAPGKERELVASIRWSGGGTYYADSVKGRFTISRDNAKNTVYLQMNCLKPEDTAVYYCKALRKTYRLDYWGQGTQVTVSS | high polyreactivity
QVQLVESGGGLVQAGGSLRLSCAATGRTFIPYAMGWYRQAPGKERELVAAIRTTGGSTYYADSVKGRFTISRDNAKNTVYLQMNSLKPEDTAVYYCAATSRQRPYDYWGQGTQVTVSS | high polyreactivity
QVQLVESGGGLVQAGGSLRLSCAATGRTFRVYAIGWYRHAHAKEREFVATISVRGGSTYYADSVKGRFTISRDNAKNTVYLQMNSLKPEDTAVYYCAADSYPYVYALYDYWGQGTQVTVSS | low polyreactivity
QVQLVESGGGLVQAGGSLRLSCAATGRTFYPYVMGWYRQAAGKERDLVASITDSGGNTYYADSVKGRFTISRDHAKNTVYLQMNSLKPEDTAVYYCNASFYYPSRRGTFQYNYWGHGTQVTVSS | low polyreactivity
QVQLVESGGGLVQAGGSLRLSCAATGRTFYVYAMGWYRQAPGKERELVADITWSGGSTYADSVKGRFTISRDNAKNTVYLQMNSLKPEDTAVYYCAAEWQTWYGVEYDYWGQGTQVTVSS | high polyreactivity
QVQLVESGGGLVQAGGSLRLSCAATGRTLVLYAMGWYRQAPGKERELVAAITWSGDSTYYADSVKGRFSISRDNAKYTVYLQMKSLKPEDTAVYYCAATYLNAKRGLRYDYWGQGTQVSVSS | low polyreactivity
QVQLVESGGGLVQAGGSLRLSCAATGRTSFRYTMGWYRQAPGKERELVAGISGSGGRTYYADSVKGRVTISRDNAKNTVYLQMNSLKPEDTAVYYCAAAWYTSHAKGKGGYWGQGTQVTVSS | high polyreactivity
QVQLVESGGGLVQAGGSLRLSCAATGSILEYYVMGWYRLAPGKERELVAAIRGGGSTYYADAVKGRFTISRDNAKNSVYLQMNSLKPEDTAVEYCAKDSQPARDFDYWGQGTQVTVSS | low polyreactivity
QVQLVESGGGLVQAGGSLRLSCAATGSTFDPNVMGWYRQAPGKEREFVAAISSRSGSTSYADSVKGRFTISRDNAKNTVYLQMNCLKPEVTAVYYCAARVYGLPLRMYSWGQGTQVTLSS | high polyreactivity

Sequence | polyreactivity (PSR sort gate)
QVQLVESGGGLVQAGGSLRLSCAATGSTFFIYAMGWYRQAPGKERELVAAISGSGGTTYYADSVKGRFTISRDNAKNTVYLHMNSLKPEDTAVYYGAARTFSAFWRGGYDYWGQGTQVTVSS | low polyreactivity
QVQLVESGGGLVQAGGSLRLSCAATGSTIEANTMGWYRQAPGKERELVASITTSGGSTNYADSVKGRFTISRDNAKNTVYLQMNSLKPEDTAVYYCAVRSTYARWNWRTADSSRDYWGQGTQVTVSS | low polyreactivity
QVQLVESGGGLVQAGGSLRLSCAATGSTIRSYGMGWYRQAPGKERELVASISWSGGSTYYADSVKGRFTISRDNAKNTVYLQMNSLKPEDTAVYYCAAGTLYSLYFGRHGYWGQGTQVTVSS | low polyreactivity
QVQLVESGGGLVQAGGSLRLSCAATGSTSGKNAMGWYRQAPAKERELFAAIRNSGGTTYYADSVKGRFTISRDNAKNTVYLQMNSLKPEDTAVYYCATRYYLNFLDGYNYWGQGTQVTVSS | high polyreactivity
QVQLVESGGGLVQAGGSLRLSCAATGYIIQHYAMGWYRQSAGKERELVAAITSGGSTTYADSVKWRFTISRDNAKNTVFLQMNSLKPEDSAVYYCKALRRDRYTRKGYEYWGQGTQVTVSS | high polyreactivity
QVQLVESGGGLVQAGGSLRLSCAAYGFIFPGNAMGWYIQAPGKERELVAAISNSGSRTYYADSVKGRFTISRDNAKNTVYLQMNSLKPEDTAVYYCNADVHNRGWPYDYWGQGTQVTVSS | low polyreactivity
QVQLVESGGGLVQAGGSLRLSCAAYGFTFYLNAMGWYRPAPGKERELVAAISYSDGSTYYADSVKGRFTISRDNAKNTVYLQMTSLKPEDTAVYYCAADTTDPGGAYQLMDYWGQGTQVSVSS | low polyreactivity
QVQLVESGGGLVQAGGSLRLSCAAYGGFFWYYTMGRYRQAPGKEREFVATITKRGGRTYYADSVKGRFTISRDNAKITVYLQMNSLKPEDTAVYFCNALGGPKSVRFDYWGQGTQVTVSS | high polyreactivity
QVQLVESGGGLVQAGGSLRLSCAAYGGIFGRYAMGWYRQAPGKERELVAAISKRGGSTYYADSVKGRVTISRDNAKNTVYLQMNSLKPEETAVYYCNAAQSVELGYDYCGQGTQVTVSS | high polyreactivity
QVQLVESGGGLVQAGGSLRLSCAAYGGTFPAYTMGWYRQAPGKERELVAAITWSGGNTYYADSVKGRFTISRDNAKNTVYLQMNSLKPQDTAVYYCAAEYWQYQWSVRIDYEYWGQGTQVNVSS | high polyreactivity
QVQLVESGGGLVQAGGSLRLSCAAYGGTFYRYAMGWYRQAPGKERELVAVISKRGGTTYYADSVKGRFTISRDNAKNTVYLQMNSLKPEDTAVYYCADRPYYWGQGTQVTVSS | high polyreactivity
QVQLVESGGGLVQAGGSLRLSCAAYGGTLPVNAMGWYRQAPVKERELVAAITTGTSTNYADSVKGRFTISRDNAKNTVYLQMNSLKPEDNAVYYCAKDQADFAYGYWGEGTQVTVSS | low polyreactivity
QVQLVESGGGLVQAGGSLRLSCAAYGIIFTDYAMGWYRQAPGKERELVAANSSGGGSTYYADSVKGRFTISRDNAKNTVYLQMNSLKPEDTAVYYFAAQSSGSYGFDHWGQGTQVTVSS | high polyreactivity
QVQLVESGGGLVQAGGSLRLSCAAYGLTFGYYVMGSYRQAPGKERELVADINFSGGSTYYADSVKGRFTISRDNAKNTVYLHMNSLKTEDTAVYYCNAVVYRFTVSSGYESWGEGTQVTVSS | low polyreactivity
QVQLVESGGGLVQAGGSLRLSCAAYGLTFHYYDMGWYRQAPGKERELVAAISAGGVNTYYADSVKGRFTISRDNAKNTVYLQMNSLKPEDTAVYFCAADYYVDVWSYTYGYWGQGTQVTVSS | high polyreactivity
QVQLVESGGGLVQAGGSLRLSCAAYGLTFYFYAMGWYRQAPGKERELVAAIDWGGGSTYYADSVKGRFTISRDNAKNTVYLQMNSLKPEDTAVYYCAARGYYYNYDVNYWGQGTQVTVSS | low polyreactivity
QVQLVESGGGLVQAGGSLRLSCAAYGRIFNEYAMGWYRQAPGKERELVAAITYSDDSTYYADSVKGRFTISRDNAKNTVYLQMISLKPEDTAVYYRNADTPVWDGHAYPVDYWGQGTQVTVSS | low polyreactivity
QVQLVESGGGLVQAGGSLRLSCAAYGRIFRGYAMGRYRQAPGKEREFVAAITKNGGSTYYADSVKGRFTISRDNAKNTVYLQMNSLKPEDTAVYYCAVRALDPYTGKSDYWGQGTQVTVSS | low polyreactivity
QVQLVESGGGLVQAGGSLRLSCAAYGRIFVFYDMGWYRQAPGKDRELVATISFRGGSTYYADSVKGRFTISRDNAKNTVYLQMNCLKPEDTAVYYCAKENKRGYSTSGYYYWGQGTQVTVSS | low polyreactivity
QVQLVESGGGLVQAGGSLRLSCAAYGRISAMGWYRQAPGKERELVAAISRGGSTYYADSVKGRFTISRDNAKNTVYLQMNSLKPEDTAVYYCARRYASTGYDYWGQGTQVTVSS | high polyreactivity
QVQLVESGGGLVQAGGSLRLSCAAYGRTFGPNVMGWYRQAPGKERELVAVITSSGGRTYYADSVKGRFTISRDNAKNTVFLQMNSLKPEDTAVYSCAADAKKFVGTKNAEHVYWGQGTQVTVSS | low polyreactivity
